Source: article PMC3680494, “Genomics-Guided Analysis of NAD Recycling Yields Functional Elucidation of COG1058 as a New Family of Pyrophosphatases” (PLoS ONE, 2013)

Substrate: Nc1ncnc2c1ncn2[C@@H]1O[C@H](CO[P@](=O)(O)O[P@](=O)(O)OC[C@H]2O[C@@H](n3cnc4c(N)ncnc43)[C@H](O)[C@@H]2O)[C@@H](O)[C@H]1O
Assay: HPLC of mononucleotide formed, Michaelis-Menten fit
Type: biochemical, Agrobacterium fabrum
Conditions: pH 7.5 (100 mM TRIS/HCl), 1 mM CoCl2, 100 mM KCl, 37°C

B1: AtCOG1058 (Agrobacterium fabrum str. C58) (protein)
chain: MSNPSSTSSVVTAAMLAIGDELLSGRTKDKNIGHLADVLTMSGIDLKEVRIVADEEESIVEALNALRSRYDYVFTSGGIGPTHDDITADAISAAFGLPCEHDAEALRLLGDMYRVREMEFTEARKRMARMPKGAAHIANPVSVAPGFVIGNVYVMAGVPQVFQAMLDNVMPTLRTGAKVMSQAVRSPYGEGDIGTPLTAIQKAHPETSIGSYPKYDGQRFSTEIVVRARDAGLLKAATEAVAAMIEAIGQEKQLAASKGDATA
notes: stand-alone COG1058 protein cloned from genomic DNA in pET100/D-TOPO; N-terminal His tag; E. coli BL21(DE3); HisTrap purified
Which results are given for B1?
Km: 210 ± 22 µM; kcat: 5.6 ± 0.7 s⁻¹
